Measurements from PMC6363164.

Target: Rab7-RILP complex (human) (UniProt P51149)
Experiment: ITC; 20 °C; 20 mM Tris-HCl pH 7.5, 150 mM NaCl; 1 mM ORP1 ANK in the syringe, 0.1 mM Rab7 or Rab7-RILP in the cell; Rab7 Q67L with 0.5 mM GTP, Rab7 T22N with 0.5 mM GDP; independent binding model

Kd: 5 µM
B1: human ORP1 ANK domain (residue 5-152) (domain or fragment)
chain: AEQQLLHHARNGNAEEVRQLLETMARNEVIADINCKGRSKSNLGWTPLHLACYFGHRQVVQDLLKAGAEVNVLNDMGDTPLHRAAFTGRKELVMLLLEYNADTTIVNGSGQTAKEVTHAEEIRSMLEAVERTQQRKLEELLLAAAREG
